± gives the standard error. For some assays here: Variants at the floor of the assay were thinned out.
B1: glmS ribozyme (parent)
chain: AUAAAAGCGCCAGAACUACAGAAAUGUAGUUGACGAGGAGGAGGUUUAUCGAAUUUUCGGCGGAUGCCUCCAAA

Tests used:
Details in all cases: with glucosamine-6-phosphate
glucosamine-6-phosphate [1] = variants of: B1; experiment: kcat; higher = faster cleavage; RNA array
Procedure, shortened: (§1)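 Barcoded glmS ribozyme variants on sequenced MiSeq chips were transcribed in situ by E. coli RNA polymerase and tracked through a hybridised Cy3 probe at 37 °C. Glucosamine-6-phosphate (40 μM to 10 mM) in HEPES/KCl/Mg(OAc)2 buffer was flowed in, and tiles were imaged over ~14 h. Signals were normalised to baseline and to non-cleaving reference variants; per-tile medians were fit to one- or two-exponential decays to give kobs. kcat and KM came from weighted Michaelis–Menten fits across concentrations.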

glucosamine-6-phosphate [2] = variants of: B1; experiment: KM; higher = weaker cofactor use; RNA array
Procedure, shortened: as §1

glucosamine-6-phosphate [3] = variants of: B1; experiment: self-cleavage kobs at 640 uM GlcN6P; higher = faster cleavage; RNA array
Procedure, shortened: as §1

glucosamine-6-phosphate [4] = variants of: B1; experiment: self-cleavage kobs at 2500 uM GlcN6P; higher = faster cleavage; RNA array
Procedure, shortened: as §1

glucosamine-6-phosphate [5] = variants of: B1; experiment: self-cleavage kobs at 10000 uM GlcN6P; higher = faster cleavage; RNA array
Procedure, shortened: as §1

glucosamine-6-phosphate [6] = variants of: B1; experiment: self-cleavage kobs at 40 uM GlcN6P; higher = faster cleavage; RNA array
Procedure, shortened: as §1

glucosamine-6-phosphate [7] = variants of: B1; experiment: self-cleavage kobs at 160 uM GlcN6P; higher = faster cleavage; RNA array
Procedure, shortened: as §1

Variant | kcat (glucosamine-6-phosphate [1]) | KM (glucosamine-6-phosphate [2]) | self-cleavage kobs at 640 uM GlcN6P (glucosamine-6-phosphate [3]) | self-cleavage kobs at 2500 uM GlcN6P (glucosamine-6-phosphate [4]) | self-cleavage kobs at 10000 uM GlcN6P (glucosamine-6-phosphate [5]) | self-cleavage kobs at 40 uM GlcN6P (glucosamine-6-phosphate [6]) | self-cleavage kobs at 160 uM GlcN6P (glucosamine-6-phosphate [7])
G13U A15G G32A C70G | 9.35e-05 ± 2.2e-06 s⁻¹ | 405 ± 40 µM | 5.48e-05 ± 1.7e-05 s⁻¹ | 8.14e-05 ± 1.6e-05 s⁻¹ | 8.98e-05 ± 1.9e-05 s⁻¹ | – | –
A14G C16U G43A C67G | 0.00284 ± 0.00076 s⁻¹ | 2840 ± 1100 µM | 0.000459 ± 8.8e-05 s⁻¹ | 0.00221 ± 0.00072 s⁻¹ | 0.00217 ± 0.00045 s⁻¹ | 4.98e-05 ± 2.2e-05 s⁻¹ | 0.000207 ± 7.1e-05 s⁻¹
A14G A15U G40U | 0.00322 ± 0.00023 s⁻¹ | 690 ± 78 µM | 0.00146 ± 0.00029 s⁻¹ | 0.00279 ± 0.0008 s⁻¹ | 0.00298 ± 0.00083 s⁻¹ | 0.00018 ± 3.4e-05 s⁻¹ | –
G13U C68A | 1.31e-05 ± 2e-06 s⁻¹ | – | – | – | – | – | –
A14G C58U C61U | 1.33e-05 ± 2.7e-06 s⁻¹ | – | – | – | – | < 1e-05 s⁻¹ | –
A14C C68U | 0.000506 ± 4e-05 s⁻¹ | 1460 ± 250 µM | 0.00015 ± 2.1e-05 s⁻¹ | 0.000305 ± 6.4e-05 s⁻¹ | 0.000447 ± 5e-05 s⁻¹ | – | 6.97e-05 ± 2.3e-05 s⁻¹
A14C C68A | 2.76e-05 ± 9.8e-06 s⁻¹ | – | – | 3.95e-05 ± 1.8e-05 s⁻¹ | – | – | –
A14G A48G | 0.000249 ± 3.2e-05 s⁻¹ | 648 ± 220 µM | 0.000128 ± 1.4e-05 s⁻¹ | 0.000232 ± 2.6e-05 s⁻¹ | 0.000203 ± 2.9e-05 s⁻¹ | – | 3.64e-05 ± 1.4e-05 s⁻¹

From the supplement of paper PMC7125110
